The data set is described as follows: label from the status in PepcDB records.
With “MAPDNDHFLDSPSPPLLEMRHHQSATENGGGCGEIVEVQGGHIVRSTGRKDRHSKVCTAKGPRDRRVRLSAPTAIQFYDVQDRLGFDRPSKAVDWLITKAKSAIDDLAQLPPWNPADTLRQHAAAAANAKPRKTKTLISPPPPQPEETEHHRIGEEEDNESSFLPASMDSDSIADTIKSFFPVASTQQSYHHQPPSRGNTQNQDLLRLSLQSFQNGPPFPNQTEPALFSGQSNNQLAFDSSTASWEQSHQSPEFGKIQRLVSWNNVGAAESAGSTGGFVFASPSSLHPVYSQSQLLSQRGPLQSINTPMIRAWFDPHHHHHHHQQSMTTDDLHHHHPYHIPPGIHQSAIPGIAFASSGEFSGFRIPARFQGEQEEHGGDNKPSSASSDSRH”, the protein production entry was “failed”. For the sequence “MAPDQAKPAPFRDQFHRVLGVIRRGKLLILACVLLVVAPTIVFLQQATPRYTANAAVLIEAPDATDSLLDRSDMSRTRLNDLMITTEAEVLGSTPLARRVIDKLGLDQDPEFNARLRKPTAFQRVTFWLNPINWIPDGWRAGRKDEATMTPKVREELQRARVTATFLGRLSVKPKRRSFVIDLEFTATSREKSALIVNTLADLYVFDRLEAGFDETKRVNEWLAQRLESLRGDVALAEAAVETYRAENGLRPVGERQGTVANQQLTELNSRLVLARADLAQKQARLDQVRSLSRGGGVATASDVLQSSLIQQLRQREAEVRSALSEAEKTYGERHPKIIGMRADLGQLQSSIGGEIGKIASSAEGDVEIAAIGVRTLEREIVGLRQEGDVQGGAIVRLRELERQADSSRSLYEAFLSRFKRNAEQEQIQRANARLLSPADIPASPSYPRKIPILLVMMVVGFGLGIGLVFLVEGLDGTVHSTEELEALVGLPPLAVIPVVRGRGGGAVVLARPRAPIAHAFRNLRTALTLNGEETRRRIVMVSSSVPKEGKSFVSLGLALTYARAGERVLLIDADVHRSSLAATIGIDGTRGLAQVLRGEATLDQVVTRPPGMDLDFLAAGEASAQEELFDASTLGALLSEPASRYDRIIIDTAPVLAVADARIVAGVADQVIYLVRWGSTQQTAVRNGIKLLRDVRAPLAGMVLSQVDVRRHAVYGYGDYGASYGRYQEYYAE”, the protein production result is on record as “failed”.

Take “MAPEMNNKLSYGEKKRAYVTFLAGTGDYVKGVVGLAKGLRKTKSKYPLVVAVLPDVPADHRRQLLDQGCVIKEIQPVYPPDNQTQFAMAYYVLNYSKLRIWKFVEYSKLIYLDGDIQVFENIDHLFDLPDGNFYAVKDCFCEKTWSHTPQYKIGYCQQCPDKVTWPESELGPKPPLYFNAGMFVYEPSLPTYYNLLETLKVVPPTPFAEQDFLNMYFKDIYKPIPPVYNLVLAMLWRHPENIELNEAKVVHYCAAGAKPWRFTGQEGNMEREDIKMLVEKWWDIYNDESLDYKNFNVHCGQKEDVHRKPKTLPQFFTDLSEADVLQCAKAPSAA”: the protein production entry is “failed”. As for “MAPHSLKKNYRCSRSLKQFYGGGPFIVSSDGSFIACACGDVINIVDSTDSSVKSTIEGESDTLTALALSPDDKLLFSAGHSRQIRVWDLETLKCIRSWKGHEGPVMGMACHASGGLLATAGADRKVLVWDVDGGFCTHYFRGHKGVVSSILFHPDSNKNILISGSDDATVRVWDLNAKNTEKKCLAIMEKHFSAVTSIALSEDGLTLFSAGRDKVVNLWDLHDYSCKATVATYEVLEAVTTVSSGTPFASFVASLDQKKSKKKESDSQATYFITVGERGVVRIWKSEGSICLYEQKSSDITVSSDDEESKRGFTAAAMLPSDHGLLCVTADQQFFFYSVVENVEETELVLSKRLVGYNEEIADMKFLGDEEQFLAVATNLEEVRVYDVATMSCSYVLAGHKEVVLSLDTCVSSSGNVLIVTGSKDKTVRLWNATSKSCIGVGTGHNGDILAVAFAKKSFSFFVSGSGDRTLKVWSLDGISEDSEEPINLKTRSVVAAHDKDINSVAVARNDSLVCTGSEDRTASIWRLPDLVHVVTLKGHKRRIFSVEFSTVDQCVMTASGDKTVKIWAISDGSCLKTFEGHTSSVLRASFITDGTQFVSCGADGLLKLWNVNTSECIATYDQHEDKVWALAVGKKTEMIATGGGDAVINLWHDSTASDKEDDFRKEEEAILRGQELENAVLDAEYTKAIRLAFELCRPHKVFELFSGLCRKRDSDEQIVKALQGLEKEEFRLLFEYVREWNTKPKLCHIAQFVLYKTFNILPPTEIVQVKGIGELLEGLIPYSQRHFSRIDRFVRSSFLLDYTLGEMSVIDPETVETEYPKDEKKKEKDVIAAMEQDTDELKQETPSRKRKSQKSKGKSNKKRLIAEAQGSVIAV”, the protein production result was “failed”. As for “MAPKAGKKPAEKKPAEKAPAEEEKVAEKAPAEKKPKAGKKLPKEAVTGGVEKKKKRVKKSTETYKIYIFKVLKQVHPDIGISSKAMGIMNSFINDIFEKLAQEASKLARYNKKPTITSREIQTAVRLVLPGELAKHAVSEGTKAVTKFTSS”, the entry is “failed”; as for “MAPKDITFVERCYKYIDMNKNNWSPYTVTSTKSWVKNYIEPFFKNLKLTEVNPSSVQAFVNYNFNNSTFTSAKVRYSFLSSVIREAYRLREIQENSCDFIKLPLEHHHHHH”, “not failed”. In the case of “MAPLRTKAVEVLQRNSRGAFTVPAHGLYPYQWLWDSAFIALGWTQVDWERAWQELLCLFDYGQGPDGMLPHIVFHEQSRDYFPGPDVWGREARAQPATSGITQPPVVATVVRYLYEKDPDRDRARERARYLFPKLLAFHRWLYHARDPYRTGLVVIVHPWESGMDNSPAWDKPLSRVPVENLPPYERRDVKHVNPEERPRKEDYDRYLSLLYLFRRLEYDPREIYRQSPFKVVDVGFNAILQRANRDLYALAVLLQEDPYEIEEWIVRGEVGLEALWDREAGFYFSWDLVAGEPIAVKTSAGFLPLFAGTPHQGRASLLAQEAERWGEKARYLLPSVDPTSPFFEPGRYWRGPVWINVNWMVAEGFRDYGFAALAARLKADALALMEREGFREYYDPLTGQGRGGEGFSWSAALALFWTR”, the protein production entry is on record as “not failed”. In the case of “MAPRKRNPNGSGSIWQRKDGRYEARVYVPQPDGTRKRKTVYGTTWEECDTKRQELVLRDRQGIPTPTRSAKLSEWLPYWLKHYVEPRRKLSTYDKYEVQVRLYLVPLLGTRRLESLSVADVRRFITRVQNAHTAATAKESHRVLRTALTAAVREELITRNVASLVEPPRVKQREIRPWSLEETLSFLEAARSDPLYAAFVLAIAMGLRRGELGGLRWSDVDLDNRVVHVRQQTQRRRGTLYDDDPKSRRIRVVPMPALCIAPLRWHRLRQRETFARTGVAWCEAGYVFATRNGRPVEPRNVYRSFTRVAADAGLRVVRLHDARHGCATLLTAAGVAPRVIMEILGHSQISITMDVYTHVVHDTQREAISHMDRLLKRRLPTSLSGGAGSIEFP”, the protein production entry is “failed”. On to “MAQADTPAPVARLPRRRGIELALILMAVLLSVFGYCNVGLAQHDALPPGAAGYGAGLGVLALLAHLAVRLRAPYADPLLLPIGVLLNGLGLVLIYRLDLETPGDRAAPTQLVWSTLGVALFIVVVLLLRDHRVLQRYAYVCVAAALALLTVPIFFPAVNGARIWIRIEGFSIQPGEFAKVLLAVFFAAYLAANRSALAYAGRRVWRLQLPTGRVLGPILAVWLVSVGVLVLERDLGTSLLFFGLFVVLLYVATGRTGWIAVGLLLASLGAVAVGWLEPHVHSRVEDWLHPFASIEAGHGPNQLAQSLFAFAAGGVTGTGLGLGHSVLIGFAVKSDFILATAGEELGFLGLSAVFLLYGLLVERGYRAGLGARDPFGRLLAVGLSSIVALQVFVIAGGVTGLIPLTGMAMPFLAQGGSSVVTNWAIVALLIRVSHAARSQAGGRAEP”, for which the protein production result is listed as “failed”. Turning to “MAQIISNAAVGRTLLILLLCAGVFFFIDFLVPALAALIICFSSWPLYKKLLVKCGGRSAVAASIALVLIVLGLITPLIFVFSYALQEIRIWAEWLVYANQHGAPVPLWIKDLPWVGEWLTLQWQQFIGEPHELGQIVSAISGQNLTGISRWVLQLGWNTLGLLLTLLFMLITLFFLYKDGESVAKQVDVVGERILPARWYRFSRVVPATVSSTVIGMTLIAIGEGIVLGIAYWIAGVPSAVAFGVLTAFMALIPGGAPTMFTLISLYLVGTGDMTAGVGLFLWGSIELFIVDKTLRPNLVGGPIKLPFLPTFFGLIGGVKTMGFVGLFVGPVLMALLVAIWREWLRDDPDTFVMPESLAPETLEADKVQRRLD”, the protein production result is on record as “failed”.

Source of the values: a protein production outcome set (Wang et al. 2014).
